T1: cynomolgus CD47 (cynomolgus, UniProt A0A5F8AK49 19-323)
T1 chain: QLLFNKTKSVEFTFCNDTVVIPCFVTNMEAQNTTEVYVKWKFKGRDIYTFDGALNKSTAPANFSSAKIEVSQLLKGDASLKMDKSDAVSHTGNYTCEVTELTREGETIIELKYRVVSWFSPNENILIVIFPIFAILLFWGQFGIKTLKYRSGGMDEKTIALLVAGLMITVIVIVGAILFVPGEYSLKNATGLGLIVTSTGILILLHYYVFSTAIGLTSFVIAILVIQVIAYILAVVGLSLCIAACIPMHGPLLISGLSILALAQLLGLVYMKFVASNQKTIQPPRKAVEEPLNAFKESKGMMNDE

B1: B1.28DD/KT14KK/28 (antibody)
chain 1: EVKLVESGGGLVKPGGSLKLSCAASGFTFGLYTMSWVRQTPERRLEWVATISSGGSNTYYPDSVKGRFTISRDNAKNNLFLQMNSLRSEDTALYYCARYYRYDAWFAYWGQGTLVTVSS
chain 2: QVQLVQSGAEVKKPGASVKVSCKASGYTFTNYNMHWVRQAPGQRLEWMGTIYPGNDDTSYNQKFKDRVTITADTSASTAYMELSSLRSEDTAVYYCARGGYRAMDYWGQGTLVTVSS
chain 3: DVLLTQTPLSLPVSLGDQASISCRSSQNIVHSTGNTYLDWYLQKPGQSPKLLIYKVSNRFSGVPDRFSGSGSGTDFTLKISRVEAEDLGVYFCFQGSHIPRTFGGGTKLEIK
B2: B1.28 (antibody, V domains shown)
VH: B1 chain 1
VL: B1 chain 3

Legend:
human CD47 = human CD47 (human, UniProt Q08722 19-323); assay: FACS binding, C6-hKT14 cells
cynomolgus CD47 = target: T1, cynomolgus CD47; assay: FACS binding, C6-cKT14 cells
[1] = target: T2, human MDR1 (multidrug resistance protein 1) (UniProt P08183 1-1280); assay: FACS binding, 293T-hB1 cells
[2] = target: cynomolgus MDR1 (Macaca fascicularis); assay: FACS binding, 293T-cB1 cells
cynomolgus MDR1 (Macaca fascicularis), sequence (chain, as listed by the source): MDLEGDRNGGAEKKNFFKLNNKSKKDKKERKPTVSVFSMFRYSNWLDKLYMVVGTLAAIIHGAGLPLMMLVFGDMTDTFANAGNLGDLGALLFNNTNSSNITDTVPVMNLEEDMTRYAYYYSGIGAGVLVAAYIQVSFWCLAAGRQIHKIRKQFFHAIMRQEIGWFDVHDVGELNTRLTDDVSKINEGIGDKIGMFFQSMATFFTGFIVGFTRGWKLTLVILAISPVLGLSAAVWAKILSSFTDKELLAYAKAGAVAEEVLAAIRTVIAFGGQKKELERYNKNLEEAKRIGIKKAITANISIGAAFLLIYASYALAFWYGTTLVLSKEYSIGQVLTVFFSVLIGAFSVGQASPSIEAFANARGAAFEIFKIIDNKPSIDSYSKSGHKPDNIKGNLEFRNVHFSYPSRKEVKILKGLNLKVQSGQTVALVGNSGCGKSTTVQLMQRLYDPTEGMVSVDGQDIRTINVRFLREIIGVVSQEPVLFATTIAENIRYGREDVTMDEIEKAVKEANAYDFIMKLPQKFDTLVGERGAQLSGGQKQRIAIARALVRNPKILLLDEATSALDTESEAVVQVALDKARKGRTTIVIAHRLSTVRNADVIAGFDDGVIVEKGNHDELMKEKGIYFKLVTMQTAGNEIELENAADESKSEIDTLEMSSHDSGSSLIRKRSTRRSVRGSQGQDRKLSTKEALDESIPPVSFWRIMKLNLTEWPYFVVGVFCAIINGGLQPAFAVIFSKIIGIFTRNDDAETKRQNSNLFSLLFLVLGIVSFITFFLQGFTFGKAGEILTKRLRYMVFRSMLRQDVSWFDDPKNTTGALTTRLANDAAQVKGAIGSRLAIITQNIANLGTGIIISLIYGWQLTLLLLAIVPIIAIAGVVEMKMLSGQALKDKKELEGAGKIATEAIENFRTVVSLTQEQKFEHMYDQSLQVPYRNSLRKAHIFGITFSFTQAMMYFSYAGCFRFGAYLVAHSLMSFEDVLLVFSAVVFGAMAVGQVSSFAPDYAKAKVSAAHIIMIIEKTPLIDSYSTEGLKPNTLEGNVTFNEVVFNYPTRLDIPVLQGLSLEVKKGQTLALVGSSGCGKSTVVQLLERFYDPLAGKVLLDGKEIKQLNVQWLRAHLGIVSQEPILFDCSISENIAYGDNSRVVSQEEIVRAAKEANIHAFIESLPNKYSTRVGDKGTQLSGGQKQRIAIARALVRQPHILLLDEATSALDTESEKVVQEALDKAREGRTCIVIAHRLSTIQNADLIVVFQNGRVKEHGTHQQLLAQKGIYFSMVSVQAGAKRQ

[3] = target: T2, human MDR1 (multidrug resistance …); assay: FACS binding, 293T cells expressing human MDR1

Binder	EC50 (human CD47) [nM]	EC50 (cynomolgus CD47) [nM]	Kd [1] [nM]	Kd [2] [nM]	EC50 [3] [nM]
B1	40	83	–	–	–
B2	–	–	17	97	4.8
